# Measured values from PMC4014428, “Enhanced Interaction between Pseudokinase and Kinase Domains in Gcn2 stimulates eIF2α Phosphorylation in Starved Cells” (PLoS Genetics, 2014).
# Numbering of substitutions follows the chain as printed. Names and notes keep the numbering of the source.
# B1: Gcn2 YKD fragment (230–604) L527I (domain or fragment, S. cerevisiae, UniProt P15442 230-604, looked up)
# chain: MFKFKAVVNPKPIKLTSDIFSFSKQFLVKPYIPPESPLADFLMSSEMMENFYYLLSEIELDNSYFNTSNGKKEIANLEKELETVLKAKHDNVNRLFGYTVERMGRNNATFVWKIRLLTEYCNYYPLGDLIQSVGFVNLATARIWMIRLLEGLEAIHKLGIVHKCINLETVILVKDADFGSTIPKLVHSTYGYTVLNMLSRYPNKNGSSVELSPSTWIAPELLKFNNAKPQRLTDIWQLGVLFIQIISGSDIVMNFETPQEFLDSTSMDETLYDLLSKMLNNDPKKRLGTLELLPMKFIRTNIDSTINRFNLVSESVNSNSLELTPGDTITVRGNGGRTLSQSSIRRRSFNVGSRFSSINPATRSRYASDFEEIAV
# modifications: [35S]-methionine-labeled
# notes: Gcn2 YKD segment, S. cerevisiae, residues 230-604; also called L527I YKD fragment; source: in vitro translated (TNT T7 Coupled Reticulocyte Lysate System), partially purified by ammonium sulfate precipitation
# B2: Gcn2 YKD fragment (230–604) R528A (domain or fragment, S. cerevisiae, UniProt P15442 230-604, looked up)
# chain: B1 chain with I298L, R299A
# modifications: [35S]-methionine-labeled
# notes: Gcn2 YKD segment, S. cerevisiae, residues 230-604; also called R528A YKD fragment; source: in vitro translated (TNT T7 Coupled Reticulocyte Lysate System), partially purified by ammonium sulfate precipitation
# B3: Gcn2 YKD fragment (230–604) T518A/L527I (domain or fragment, S. cerevisiae, UniProt P15442 230-604, looked up)
# chain: B1 chain with T289A
# modifications: [35S]-methionine-labeled
# notes: Gcn2 YKD segment, S. cerevisiae, residues 230-604; also called T518A/L527I YKD fragment; source: in vitro translated (TNT T7 Coupled Reticulocyte Lysate System), partially purified by ammonium sulfate precipitation
# B4: Gcn2-ΔYKD (enzyme, S. cerevisiae, UniProt P15442 1-1659, looked up)
# chain: MSLSHLTLDQYYEIQCNELEAIRSIYMDDFTDLTKRKSSWDKQPQIIFEITLRSVDKEPVESSITLHFAMTPMYPYTAPEIEFKNVQNVMDSQLQMLKSEFKKIHNTSRGQEIIFEITSFTQEKLDEFQNVVNTQSLEDDRLQRIKETKEQLEKEEREKQQETIKKRSDEQRRIDEIVQRELEKRQDDDDDLLFNRTTQLDLQPPSEWVASGEAIVFSKTIKAKLPNNSMFKFKAVVNPKPIKLTSDIFSFSKQFLVKPYIPPESPLADFLMSSEMMENFYYLLSEIELDNSYFNTSNGKKEIANLEKELETVLKAKHDNVNRNLVSESVNSNSLELTPGDTITVRGNGGRTLSQSSIRRRSFNVGSRFSSINPATRSRYASDFEEIAVLGQGAFGQVVKARNALDSRYYAIKKIRHTEEKLSTILSEVMLLASLNHQYVVRYYAAWLEEDSMDENVFESTDEESDLSESSSDFEENDLLDQSSIFKNRTNHDLDNSNWDFISGSGYPDIVFENSSRDDENEDLDHDTSSTSSSESQDDTDKESKSIQNVPRRRNFVKPMTAVKKKSTLFIQMEYCENRTLYDLIHSENLNQQRDEYWRLFRQILEALSYIHSQGIIHRDLKPMNIFIDESRNVKIGDFGLAKNVHRSLDILKLDSQNLPGSSDNLTSAIGTAMYVATEVLDGTGHYNEKIDMYSLGIIFFEMIYPFSTGMERVNILKKLRSVSIEFPPDFDDNKMKVEKKIIRLLIDHDPNKRPGARTLLNSGWLPVKHQDEVIKEALKSLSNPSSPWQQQVRESLFNQSYSLTNDILFDNSVPTSTPFANILRSQMTEEVVKIFRKHGGIENNAPPRIFPKAPIYGTQNVYEVLDKGGTVLQLQYDLTYPMARYLSKNPSLISKQYRMQHVYRPPDHSRSSLEPRKFGEIDFDIISKSSSESGFYDAESLKIIDEILTVFPVFEKTNTFFILNHADILESVFNFTNIDKAQRPLVSRMLSQVGFARSFKEVKNELKAQLNISSTALNDLELFDFRLDFEAAKKRLYKLMIDSPHLKKIEDSLSHISKVLSYLKPLEVARNVVISPLSNYNSAFYKGGIMFHAVYDDGSSRNMIAAGGRYDTLISFFARPSGKKSSNTRKAVGFNLAWETIFGIAQNYFKLASGNRIKKRNRFLKDTAVDWKPSRCDVLISSFSNSLLDTIGVTILNTLWKQNIKADMLRDCSSVDDVVTGAQQDGIDWILLIKQQAYPLTNHKRKYKPLKIKKLSTNVDIDLDLDEFLTLYQQETGNKSLINDSLTLGDKADEFKRWDENSSAGSSQEGDIDDVVAGSTNNQKVIYVPNMATRSKKANKREKWVYEDAARNSSNMILHNLSNAPIITVDALRDETLEIISITSLAQKEEWLRKVFGSGNNSTPRSFATSIYNNLSKEAHKGNRWAILYCHKTGKSSVIDLQR
# notes: Gcn2, S. cerevisiae, otherwise full length, lacking the pseudokinase domain (YKD); also called gcn2-Δ324-538; source: yeast gcn2Δ strain HQY132, high-copy plasmid (p630 backbone), in whole cell extract
# Key:
# [1] = target: T1, HA epitope-tagged LexA fusion to a Gcn2 KD segment (residues 720–999) (S. cerevisiae, UniProt P15442 720-999); assay: co-IP; [35S]methionine-labelled in vitro translated YKD fragments incubated with 50 µg WCE of gcn2Δ yeast HQY132 expressing LexA-HA-KD(720–999); anti-HA agarose, 4°C 2 h, breaking buffer (50 mM Tris/HCl pH 7.5, 50 mM NaCl, 0.1% Triton, 1 mM DTT); SDS-PAGE and fluorography; pellet:input ratios normalised to WT YKD; conditions: partners not purified
# T1 construct: the plasmid is PGAL-LexA-HA-GCN2 (720–999); also called HA-LexA-KD; LexA-HA-KD; source: yeast gcn2Δ strain HQY132, high-copy-number plasmid, in whole cell extract; not shown: LexA, N-terminal, kept; HA, N-terminal, kept
# [2] = target: T1, HA epitope-tagged LexA fusion to a Gcn2 …; assay: co-IP; WCEs (50 µg protein) of gcn2Δ yeast HQY132 co-expressing LexA-HA-KD(720–999) and Gcn2 (WT or mutant) immunoprecipitated with anti-HA antibodies; blots with anti-Gcn2 and anti-LexA; pellet:input ratios of Gcn2 normalised to LexA-HA-KD in the pellet, three experiments; conditions: partners not purified
Binder,level co-immunoprecipitated relative to WT YKD [1],proportion co-immunoprecipitated relative to WT Gcn2 [2]
B1,~4 fold of WT,–
B2,60 % of WT,–
B3,~4 fold of WT,–
B4,–,~0.33 fraction of WT
